From PMC12412652 (2025)
Substitutions are numbered along the chain they refer to.

T1: MCL-1 (Homo sapiens)
T1 chain: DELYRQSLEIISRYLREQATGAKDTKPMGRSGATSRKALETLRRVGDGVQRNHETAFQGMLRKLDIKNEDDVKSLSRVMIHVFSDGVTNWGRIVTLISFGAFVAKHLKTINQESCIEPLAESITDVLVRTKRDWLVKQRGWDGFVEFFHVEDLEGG

T2: MBP-BAK 16-186, biotinylated (Avi tag, 6-histidine tag) (human, UniProt Q16611 16-186, biotin on the Avi tag (enzymatic, BirA))
T2 chain: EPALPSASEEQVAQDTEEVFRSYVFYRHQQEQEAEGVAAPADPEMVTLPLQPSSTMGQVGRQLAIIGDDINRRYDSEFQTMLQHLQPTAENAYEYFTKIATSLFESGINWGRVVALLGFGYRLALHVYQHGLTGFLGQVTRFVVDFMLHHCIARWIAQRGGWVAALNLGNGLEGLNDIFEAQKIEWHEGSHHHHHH

T3: BFL-1 (UniProt Q16548 1-175, biotin)
T3 chain: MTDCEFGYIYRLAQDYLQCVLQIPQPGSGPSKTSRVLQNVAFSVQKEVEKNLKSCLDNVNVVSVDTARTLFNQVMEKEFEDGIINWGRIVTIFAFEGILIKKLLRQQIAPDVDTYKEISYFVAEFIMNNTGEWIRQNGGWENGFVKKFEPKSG

T4: BCL-W (Homo sapiens)
T4 chain: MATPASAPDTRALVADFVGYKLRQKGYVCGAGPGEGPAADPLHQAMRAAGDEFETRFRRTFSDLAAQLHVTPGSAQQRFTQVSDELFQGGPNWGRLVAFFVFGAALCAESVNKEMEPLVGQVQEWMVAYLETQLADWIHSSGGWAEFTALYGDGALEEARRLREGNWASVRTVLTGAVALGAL

T5: BCL-B (Homo sapiens)
T5 chain: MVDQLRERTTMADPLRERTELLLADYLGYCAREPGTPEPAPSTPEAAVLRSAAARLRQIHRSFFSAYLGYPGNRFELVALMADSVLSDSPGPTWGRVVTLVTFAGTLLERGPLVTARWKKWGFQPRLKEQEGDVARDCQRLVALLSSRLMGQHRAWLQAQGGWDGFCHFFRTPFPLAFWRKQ

B1: BAK-CDP02 (BAK-targeting computationally designed protein 02 of 11) (designed binder)
chain: GADPKKVLDKAKDQAENVVRKLKQILEELYKEARKLDLTQDEKIELILRYIAAMLAAIGDILEAIRQAKEEADKLKKAGLVNSQQLDELKRRLEELRKEAARKARDYAEEFRNKLEYG
B2: αBAK2 (designed binder)
chain: GADPKKVLDKADDQMENVVVTLKQELEELAKERRKLDLTQSEKIELKLRYIVAHLAAIGDIEEAIREAKEEADKLKKAGLVNSQQFAEFKRRLEELHKEADRKRRDYAEEFRNKLEYG
B3: αBAX2 (designed binder)
chain: GADPKKVLDKARDQAENRVRELRQKLTELYKEARKLDLTQEERRKLIKRYKAAMNEAIKDIHEAIEQAKEEADKLKDAGLVNEQQLKELKQRLNEKALAAAFRASGDTWHARRKLQYG
B4: αBAX1 (designed binder)
chain: B3 chain with R23A, T27E, I47E, N55E, K96L, L98I, W109I, H110E, A111F
B5: BAX-CDP01 (BAX-targeting computationally designed protein 01) (designed binder)
chain: GADPKKVLDKARDQAENRVRELAQKLEELYKEARKLDLTQEERRKLEKRYKAAMEEAIKDIREAIRQAKQEADKLKKAGLVNSQQLKELKQRLNELAIAAALRAIGDAIEFRRKLQYG
B6: BAK-CDP02 (BAK-targeting computationally designed protein 02 of 11) (designed binder)
chain: B1 chain
modifications: biotinylated for BLI (Avi tag). Limits not given; the conventional BCL-2-fold core 172-327 is taken
B7: αBAK1 (designed binder)
chain: B2 chain with D12K, V20R, T21K, E25I, R33A, S41D, K47I, F86L, A87D
modifications: biotinylated for BLI (Avi tag). Limits not given; the conventional BCL-2-fold core 172-327 is taken
B8: αBAK2 (designed binder)
chain: B2 chain
modifications: biotinylated for BLI (Avi tag). Limits not given; the conventional BCL-2-fold core 172-327 is taken
B9: αBAX2 (designed binder)
chain: B3 chain
modifications: biotinylated for BLI (Avi tag). Limits not given; the conventional BCL-2-fold core 172-327 is taken
B10: αBAX1 (designed binder)
chain: B5 chain with R62H, R66E, Q70E, K77D, S83E, L102F, I105S, A108T
modifications: biotinylated for BLI (Avi tag). Limits not given; the conventional BCL-2-fold core 172-327 is taken
B11: BAX-CDP01 (BAX-targeting computationally designed protein 01) (designed binder)
chain: B5 chain
modifications: biotinylated for BLI (Avi tag). Limits not given; the conventional BCL-2-fold core 172-327 is taken
B12: αBAK1 (designed binder)
chain: B2 chain with D12K, V20R, T21K, E25I, R33A, S41D, K47I, F86L, A87D
B13: BAK-CDP02 (BAK-targeting computationally designed protein 02 of 11) (designed binder)
chain: B1 chain
modifications: biotinylated for BLI (Avi tag). Limits not given; the soluble form lacking the transmembrane segment (210-226) is taken by convention. Any loop deletion is not stated
B14: αBAK1 (designed binder)
chain: B2 chain with D12K, V20R, T21K, E25I, R33A, S41D, K47I, F86L, A87D
modifications: biotinylated for BLI (Avi tag). Limits not given; the soluble form lacking the transmembrane segment (210-226) is taken by convention. Any loop deletion is not stated
B15: αBAK2 (designed binder)
chain: B2 chain
modifications: biotinylated for BLI (Avi tag). Limits not given; the soluble form lacking the transmembrane segment (210-226) is taken by convention. Any loop deletion is not stated
B16: αBAX2 (designed binder)
chain: B3 chain
modifications: biotinylated for BLI (Avi tag). Limits not given; the soluble form lacking the transmembrane segment (210-226) is taken by convention. Any loop deletion is not stated
B17: αBAX1 (designed binder)
chain: B5 chain with R62H, R66E, Q70E, K77D, S83E, L102F, I105S, A108T
modifications: biotinylated for BLI (Avi tag). Limits not given; the soluble form lacking the transmembrane segment (210-226) is taken by convention. Any loop deletion is not stated
B18: BAX-CDP01 (BAX-targeting computationally designed protein 01) (designed binder)
chain: B5 chain
modifications: biotinylated for BLI (Avi tag). Limits not given; the soluble form lacking the transmembrane segment (210-226) is taken by convention. Any loop deletion is not stated
B19: BAK-CDP02 (BAK-targeting computationally designed protein 02 of 11) (designed binder)
chain: B1 chain
modifications: biotinylated for BLI (Avi tag). Limits not printed in the text (constructs as in cited earlier work); the soluble form lacking the C-terminal tail is taken by convention. Any solubility mutations are not stated
B20: αBAK2 (designed binder)
chain: B2 chain
modifications: biotinylated for BLI (Avi tag). Limits not printed in the text (constructs as in cited earlier work); the soluble form lacking the C-terminal tail is taken by convention. Any solubility mutations are not stated
B21: αBAK1 (designed binder)
chain: B2 chain with D12K, V20R, T21K, E25I, R33A, S41D, K47I, F86L, A87D
modifications: biotinylated for BLI (Avi tag). Limits not printed in the text (constructs as in cited earlier work); the soluble form lacking the C-terminal tail is taken by convention. Any solubility mutations are not stated
B22: αBAX1 (designed binder)
chain: B5 chain with R62H, R66E, Q70E, K77D, S83E, L102F, I105S, A108T
modifications: biotinylated for BLI (Avi tag). Limits not printed in the text (constructs as in cited earlier work); the soluble form lacking the C-terminal tail is taken by convention. Any solubility mutations are not stated
B23: αBAX2 (designed binder)
chain: B3 chain
modifications: biotinylated for BLI (Avi tag). Limits not printed in the text (constructs as in cited earlier work); the soluble form lacking the C-terminal tail is taken by convention. Any solubility mutations are not stated
B24: BAX-CDP01 (BAX-targeting computationally designed protein 01) (designed binder)
chain: B5 chain
modifications: biotinylated for BLI (Avi tag). Limits not printed in the text (constructs as in cited earlier work); the soluble form lacking the C-terminal tail is taken by convention. Any solubility mutations are not stated
B25: BAK-CDP02 (BAK-targeting computationally designed protein 02 of 11) (designed binder)
chain: B1 chain
modifications: biotinylated for BLI (Avi tag). Limits not given; the soluble form lacking the transmembrane segment (183-200) is taken by convention
B26: αBAK2 (designed binder)
chain: B2 chain
modifications: biotinylated for BLI (Avi tag). Limits not given; the soluble form lacking the transmembrane segment (183-200) is taken by convention
B27: αBAK1 (designed binder)
chain: B2 chain with D12K, V20R, T21K, E25I, R33A, S41D, K47I, F86L, A87D
modifications: biotinylated for BLI (Avi tag). Limits not given; the soluble form lacking the transmembrane segment (183-200) is taken by convention
B28: αBAX1 (designed binder)
chain: B5 chain with R62H, R66E, Q70E, K77D, S83E, L102F, I105S, A108T
modifications: biotinylated for BLI (Avi tag). Limits not given; the soluble form lacking the transmembrane segment (183-200) is taken by convention
B29: αBAX2 (designed binder)
chain: B3 chain
modifications: biotinylated for BLI (Avi tag). Limits not given; the soluble form lacking the transmembrane segment (183-200) is taken by convention
B30: BAX-CDP01 (BAX-targeting computationally designed protein 01) (designed binder)
chain: B5 chain
modifications: biotinylated for BLI (Avi tag). Limits not given; the soluble form lacking the transmembrane segment (183-200) is taken by convention

Each binder was assayed against BCL-2 (UniProt P10415 1-239, biotin) (assay: BLI).
BCL-2, sequence (P10415 1-207): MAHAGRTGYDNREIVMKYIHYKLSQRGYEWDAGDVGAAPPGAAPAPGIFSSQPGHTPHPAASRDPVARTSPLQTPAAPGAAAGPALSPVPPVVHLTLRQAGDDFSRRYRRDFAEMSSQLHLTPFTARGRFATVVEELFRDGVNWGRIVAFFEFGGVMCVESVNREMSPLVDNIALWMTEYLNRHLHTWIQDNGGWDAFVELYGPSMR

Row | Kd [nM] | Binder
1 | 130 | B1
2 | 133 | B2
3 | 2300 | B3
4 | 3500 | B4
5 | 50 | B5

Target: T1, MCL-1
Experiment: BLI

Row | Kd [nM] | Binder
6 | 5.4 | B6
7 | 500 | B7
8 | 310 | B8
9 | 18000 | B9
10 | 600 | B10
11 | 10 | B11

Target: T2, MBP-BAK 16-186, biotinylated (Avi tag, …)
Experiment: BLI

Row | Kd [nM] | Binder
12 | > 9000 | B3

Target: T3, BFL-1
Experiment: BLI

Row | Kd [nM] | Binder
13 | 10 | B1
14 | 960 | B2
15 | 1700 | B12
16 | 300 | B3
17 | 23 | B5

The binders below were run against BCL-XL (Homo sapiens) (assay: BLI).
BCL-XL (Homo sapiens), sequence (chain, as listed by the source): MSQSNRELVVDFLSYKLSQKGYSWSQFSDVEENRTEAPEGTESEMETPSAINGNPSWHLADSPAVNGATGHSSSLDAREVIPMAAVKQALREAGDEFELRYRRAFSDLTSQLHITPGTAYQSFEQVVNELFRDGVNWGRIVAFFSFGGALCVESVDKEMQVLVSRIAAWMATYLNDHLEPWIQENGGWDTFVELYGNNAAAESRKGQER

Row | Kd [nM] | Binder
18 | 30000 | B13
19 | 100000 | B14
20 | 5700 | B15
21 | 1090 | B16
22 | 510 | B17
23 | 38 | B18

These binders were tested against MBP-BAX 1-166 C62S C126S, biotinylated (Avi tag, 6-histidine tag) (human, UniProt Q07812 1-166, C62S | C126S, biotin on the Avi tag (enzymatic, BirA)) (assay: BLI).
MBP-BAX 1-166 C62S C126S, biotinylated (Avi tag, 6-histidine tag), sequence (Q07812 1-166 C62S/C126S): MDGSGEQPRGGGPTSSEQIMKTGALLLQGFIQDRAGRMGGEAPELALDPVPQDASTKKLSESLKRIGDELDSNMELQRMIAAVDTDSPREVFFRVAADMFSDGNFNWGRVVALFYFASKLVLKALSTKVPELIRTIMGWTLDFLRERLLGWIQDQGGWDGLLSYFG

Row | Kd [nM] | Binder
24 | > 9000 | B2
25 | 10000 | B12
26 | 1.43 | B4

Target: T4, BCL-W
Experiment: BLI

Row | Kd [nM] | Binder
27 | 800 | B19
28 | 5000 | B20
29 | 9550 | B21
30 | 300000 | B22
31 | 30000 | B23
32 | 6000 | B24

Target: T5, BCL-B
Experiment: BLI

Row | Kd [nM] | Binder
33 | 200 | B25
34 | 3000 | B26
35 | 12000 | B27
36 | > 20000 | B28
37 | 80000 | B29
38 | 2000 | B30

What follows are binders tested against MBP-BAK 16-186, biotinylated (Avi tag, 6-histidine tag) (human, UniProt Q16611 16-186, biotin on the Avi tag (enzymatic, BirA)) (assay: BLI).

Row | Kd [nM] | Binder
39 | > 20000 | B4
40 | 3100 | B5
